Measurements as given in paper PMC6737238.

How the values were obtained:
Test in all cases: EMSA
Conditions in all cases: EMSA: 0.4 nM biotinylated probe, 10 mM Tris-HCl pH 7.5, 1 mM DTT, 10 mM MgCl2, 400 mM KCl, 0.05% NP-40, 70C 10 min; 5% PAGE, 0.5x TBE
[1] = molecular target: T1, TkTrpY (TK1227 protein) (Thermococcus kodakarensis KOD1) (UniProt Q5JGI5)
T1 sequence: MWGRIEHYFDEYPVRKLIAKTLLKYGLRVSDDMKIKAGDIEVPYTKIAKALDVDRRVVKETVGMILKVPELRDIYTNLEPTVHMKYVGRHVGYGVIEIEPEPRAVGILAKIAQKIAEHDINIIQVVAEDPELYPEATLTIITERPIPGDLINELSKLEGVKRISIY

[2] = molecular target: T2, TK0063 protein (Thermococcus kodakarensis KOD1) (UniProt Q5JEG2)
T2 sequence: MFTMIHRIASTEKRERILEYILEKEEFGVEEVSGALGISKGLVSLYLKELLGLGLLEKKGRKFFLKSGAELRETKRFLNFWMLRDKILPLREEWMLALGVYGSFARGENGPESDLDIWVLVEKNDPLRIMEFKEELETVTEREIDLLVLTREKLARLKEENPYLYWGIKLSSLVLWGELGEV

[3] = molecular target: T3, TK0142 protein (Thermococcus kodakarensis KOD1) (UniProt Q5JFH4)
T3 sequence: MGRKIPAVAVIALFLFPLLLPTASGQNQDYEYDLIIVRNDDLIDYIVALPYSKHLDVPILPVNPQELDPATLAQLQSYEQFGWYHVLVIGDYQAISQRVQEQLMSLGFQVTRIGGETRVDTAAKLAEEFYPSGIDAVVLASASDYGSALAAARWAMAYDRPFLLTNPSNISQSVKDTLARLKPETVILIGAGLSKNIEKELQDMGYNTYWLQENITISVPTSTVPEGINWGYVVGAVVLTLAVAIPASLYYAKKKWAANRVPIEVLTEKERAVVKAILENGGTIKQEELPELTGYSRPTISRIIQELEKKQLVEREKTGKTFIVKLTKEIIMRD

[4] = molecular target: T4, TK0169 protein (Thermococcus kodakarensis KOD1) (UniProt Q5JFL2)
T4 sequence: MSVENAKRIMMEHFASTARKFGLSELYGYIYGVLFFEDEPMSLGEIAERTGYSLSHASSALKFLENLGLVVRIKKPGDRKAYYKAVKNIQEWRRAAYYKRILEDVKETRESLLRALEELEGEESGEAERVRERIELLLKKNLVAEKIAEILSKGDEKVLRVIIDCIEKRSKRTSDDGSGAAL

[5] = molecular target: T5, TK0271 protein (IVT) (Thermococcus kodakarensis KOD1) (UniProt Q5JFW7)
T5 sequence: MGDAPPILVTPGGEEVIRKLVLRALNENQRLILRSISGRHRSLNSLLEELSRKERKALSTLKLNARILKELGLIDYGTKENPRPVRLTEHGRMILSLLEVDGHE

[6] = molecular target: T6, TK0888 protein (Thermococcus kodakarensis KOD1) (UniProt Q5JI32)
T6 sequence: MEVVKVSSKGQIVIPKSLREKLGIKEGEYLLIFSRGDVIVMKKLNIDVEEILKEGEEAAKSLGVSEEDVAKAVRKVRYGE

[7] = molecular target: T7, TK1210 protein (Thermococcus kodakarensis KOD1) (UniProt Q5JGG7)
T7 sequence: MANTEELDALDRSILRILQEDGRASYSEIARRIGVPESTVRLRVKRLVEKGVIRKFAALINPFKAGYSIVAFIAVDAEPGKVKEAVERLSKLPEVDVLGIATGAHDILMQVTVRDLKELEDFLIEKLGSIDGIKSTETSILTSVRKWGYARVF

[8] = molecular target: T8, TK1227 protein (IVT) (Thermococcus kodakarensis KOD1) (UniProt Q5JGI5)
T8 sequence: T1 sequence

[9] = molecular target: T9, TK1272 protein (Thermococcus kodakarensis KOD1) (UniProt Q5JGN9)
T9 sequence: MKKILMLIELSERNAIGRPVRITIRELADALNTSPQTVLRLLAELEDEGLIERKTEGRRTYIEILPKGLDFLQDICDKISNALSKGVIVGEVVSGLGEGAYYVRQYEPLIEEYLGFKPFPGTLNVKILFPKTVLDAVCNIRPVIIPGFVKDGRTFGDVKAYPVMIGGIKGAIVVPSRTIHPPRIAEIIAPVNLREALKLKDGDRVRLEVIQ

[10] = molecular target: T10, TK1339 protein (Thermococcus kodakarensis KOD1) (UniProt Q5JGU9)
T10 sequence: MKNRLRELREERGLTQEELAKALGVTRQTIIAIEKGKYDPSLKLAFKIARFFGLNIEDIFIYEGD

[11] = molecular target: T11, TK1489 protein (Thermococcus kodakarensis KOD1) (UniProt Q5JJD9)
T11 sequence: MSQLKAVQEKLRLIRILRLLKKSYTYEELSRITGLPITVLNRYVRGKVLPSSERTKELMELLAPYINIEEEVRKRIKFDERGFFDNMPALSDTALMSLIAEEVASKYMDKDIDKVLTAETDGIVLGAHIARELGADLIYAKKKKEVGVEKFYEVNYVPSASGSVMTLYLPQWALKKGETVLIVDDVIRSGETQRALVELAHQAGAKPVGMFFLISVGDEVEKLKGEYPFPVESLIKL

[12] = molecular target: T12, TK1881 protein (Thermococcus kodakarensis KOD1) (UniProt Q5JEN6)
T12 sequence: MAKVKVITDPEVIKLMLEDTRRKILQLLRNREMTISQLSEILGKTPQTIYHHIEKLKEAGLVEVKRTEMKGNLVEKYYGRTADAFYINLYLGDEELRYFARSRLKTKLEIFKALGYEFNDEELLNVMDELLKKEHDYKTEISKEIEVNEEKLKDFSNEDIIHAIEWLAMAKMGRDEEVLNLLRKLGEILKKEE

[13] = molecular target: T13, TK1955 protein (Thermococcus kodakarensis KOD1) (UniProt Q5JDN7)
T13 sequence: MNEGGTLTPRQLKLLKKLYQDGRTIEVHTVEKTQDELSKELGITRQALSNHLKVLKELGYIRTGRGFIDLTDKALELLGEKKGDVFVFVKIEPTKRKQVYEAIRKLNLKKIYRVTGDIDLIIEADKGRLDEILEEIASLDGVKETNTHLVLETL

[14] = molecular target: T14, TK2190 protein (Thermococcus kodakarensis KOD1) (UniProt Q5JHK1)
T14 sequence: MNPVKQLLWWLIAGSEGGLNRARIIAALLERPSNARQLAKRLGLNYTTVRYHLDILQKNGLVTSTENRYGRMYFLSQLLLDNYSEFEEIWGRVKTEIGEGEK

[15] = molecular target: T15, TK2229 protein (Thermococcus kodakarensis KOD1) (UniProt Q5JHP9)
T15 sequence: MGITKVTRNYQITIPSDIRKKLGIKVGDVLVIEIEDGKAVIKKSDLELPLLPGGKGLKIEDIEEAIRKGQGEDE

[16] = molecular target: T16, Tar (TK0271 protein) (Thermococcus kodakarensis KOD1) (UniProt Q5JFW7)
T16 sequence: T5 sequence

Substance: GACCACCCGCTCAGAAAAGGACGTCGTAAGGACAAGTACACCGTTATTCTCTACCAGGCAACCGTACGAACTATTCAAAGTTCACCCTTTGAAGAAAGGCAAACATTTTTGTTTAACAAAAACACTTTTGTTAGCGCAAACTATTTAAACAACCGTTGTATATCACAGATGGTGATATATATGGTTGAGC (double strand) [TK0705 (GAPN) promoter]
- binding [1]: binds more weakly

Substance: GACTTCGGCTTTCTGATGGTCGGAAGGGACGTGGAAAATGCGAACGAAGCGATAAAAATGTTTTTGGAGGAGGTTAAACGAGGGCCTTAACGCCCTCTCGGTCTTTTTAGCTACTCCCTTGGACACCTCAGCATGTCCAAAGCCTTATATCCCAACTCCCCCTTTTGACACCGGTGAGTTCAAATGGGTGATGGTTTTTGGATTAAGC (double strand) [trp promoter (TK0252)]
- binding [2]: binds
- binding [3]: binds
- binding [4]: binds
- binding [5]: binds
- binding [6]: binds
- binding [7]: binds
- binding [8]: binds
- binding [9]: binds
- binding [10]: binds
- binding [11]: binds
- binding [12]: binds
- binding [13]: binds
- binding [14]: binds
- binding [15]: binds
- Kd [16]: 5 nM
- binding [16]: binds

Substance: GCTACTTCCATCCTCCTCTGGAGAAGCTGGAGAATTTCCCGGTCAATCTCGTCTATCCTTCTCCTCAGAATGGCAAGTTCTACAAGATCAGGACTCGATATTGGCGGGACATCACCGTCACCGTTTTGAGCTTGAAGTTCGAAGATTTAACCTTTTGGACAGGTTCACCTAACCATCCCCTCCCAGGCCCTCCTCCTCAGGAG (double strand) [tyr-phe promoter (TK0261)]
- Kd [16]: binds

Substance: GGACGCCTGTTTGTCAAATCGACAAAAATACGCCAGTTTTCACACTGATTTTTAACAGATTGATGAGATGGACGTCCTTTTTTGGGAATTGGACAGGCAAACCTGGCGAATAGTTTAAATAGGGTTGCTGATTCATCCGTCTCCGGTGATCGGTGATGTCCCGCCAATTTATGAAGTCTTCAAACCAGGTGATGTCCCGCCAATGGGTGATGC (double strand) [aro promoter (TK0271)]
- Kd [16]: binds

Substance: TGCGGGCCATCATCATCACCCAATACCTTTGATGTGGGTAAAACATGGGGAGGTTATATACTTTATGTCCCTCAGGGACTTGGCAATGAAACTTTTAAGAATTTCGTCCGATTCTAGAATCAAACTGTAAAAGACCCATATTTTACAATAGCAGCCAGGAAAGAATATTAAACAGAAAATAAGGGATTAAATGCCGTTATCCCCA (double strand) [TK1899 (radA) promoter]
- binding [16]: binds more weakly

Substance: trp promoter (TK0252)
- Kd [16]: 5 nM
